Test results reported in publication PMC4830570, “CD36 Differently Regulates Macrophage Responses to Smooth and Rough Lipopolysaccharide” (PLoS ONE, 2016).

Tests used:
[1] = target: T1, CD36 on the surface of mouse peritoneal exudate macrophages (mouse (endogenous in peritoneal exudate …, UniProt Q08857 1-472)); experiment: cellular ELISA; rCD14 with 1 μg/ml S-LPS on adherent PEMs, incubation on ice (0°C); bound rCD14 detected with HRP-anti-Fc; conditions: one partner purified
T1 construct: CD36, mouse, endogenous on the surface of peritoneal exudate macrophages; also called CD36 on PEMs; endogenous CD36; source: endogenous, on adherent thioglycollate-elicited peritoneal exudate macrophages of C57BL/6 mice
T1 sequence (Q08857 whole entry): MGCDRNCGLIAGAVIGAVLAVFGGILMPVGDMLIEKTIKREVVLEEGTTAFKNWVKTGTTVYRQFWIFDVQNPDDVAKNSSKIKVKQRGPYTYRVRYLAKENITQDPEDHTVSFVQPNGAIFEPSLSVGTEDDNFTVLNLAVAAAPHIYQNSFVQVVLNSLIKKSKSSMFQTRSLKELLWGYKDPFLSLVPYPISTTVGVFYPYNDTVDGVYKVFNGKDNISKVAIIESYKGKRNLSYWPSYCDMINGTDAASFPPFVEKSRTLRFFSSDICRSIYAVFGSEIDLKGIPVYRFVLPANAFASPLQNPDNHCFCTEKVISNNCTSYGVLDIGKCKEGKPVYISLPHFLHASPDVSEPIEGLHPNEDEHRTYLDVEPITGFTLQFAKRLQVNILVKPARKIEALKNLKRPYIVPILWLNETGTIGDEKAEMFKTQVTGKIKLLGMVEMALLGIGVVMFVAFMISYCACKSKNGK

[2] = target: T1, CD36 on the surface of mouse peritoneal …; experiment: cellular ELISA; 5 μg/ml rCD14 with 1 μg/ml S-LPS on adherent PEMs, 50 min at 37°C in FCS-RPMI; bound rCD14 detected with HRP-anti-Fc; conditions: one partner purified

B1: recombinant mouse CD14 tagged with the Fc fragment of human IgG1 (Fc fusion, UniProt P10810 16-336, looked up)
chain: SPAPPEPCELDEESCSCNFSDPKPDWSSAFNCLGAADVELYGGGRSLEYLLKRVDTEADLGQFTDIIKSLSLKRLTVRAARIPSRILFGALRVLGISGLQELTLENLEVTGTAPPPLLEATGPDLNILNLRNVSWATRDAWLAELQQWLKPGLKVLSIAQAHSLNFSCEQVRVFPALSTLDLSDNPELGERGLISALCPLKFPTLQVLALRNAGMETPSGVCSALAAARVQLQGLDLSHNSLRDAAGAPSCDWPSQLNSLNLSFTGLKQVPKGLPAKLSVLDLSYNRLDRNPSPDELPQVGNLSLKGNPFLDSESHSEKFN
notes: CD14, mouse, recombinant soluble receptor from R&D Systems; also called rCD14; source: bought: R&D Systems
For B1, the “fold higher binding on ice than at 37°C” value [1] was roughly 2 fold and the “fold increase of binding with S-LPS over binding without LPS” value [2] was greater than 25 fold.
